Laboratory results taken from the Human Domainome abundance scans (Beltran et al. 2025).

B1: Pituitary-specific positive transcription factor 1, residues 130 to 198; numbered along this chain, P28069 (parent)
chain: RELEKFANEFKVRRIKLGYTQTNVGEALAAVHGSEFSQTTICRFENLQLSFKNACKLKAILSKWLEEAE

Variants of: B1
Assay: abundance fitness (aPCA) (normalised: wild type 0, dead -1); higher = more abundant; growth selection in yeast, the domain comes from the species named
Settings: Homo sapiens

Abundance fitness, by site and new letter:
N53: W -0.271 | M 0.058 | C -0.013 | S 0.115 | T 0.131 | R 0.206 | A 0.107 | K 0.21 | Q 0 | G -0.087 | P -0.115 | E 0.355 | H 0.233 | I -0.027 | L -0.001 | V 0.122
L47: E -0.635 | F -0.562 | T -0.667 | N 0.187 | H 0.164 | C 0.155 | R -0.065 | I -0.866 | K -0.064 | P -0.804 | G 0.292 | W -0.789 | Y -0.428 | M 0.263 | A -0.204 | S -0.168 | V -0.888 | D -0.689
Q48: Y -0.79 | P -0.506 | E -0.003 | S -0.389 | I -0.758 | D -0.055 | C -0.586 | K -0.476 | W -0.915 | M -0.505 | A -0.629 | L -0.406 | G -0.673 | F -0.889 | V -0.574 | T -0.177 | R -0.331 | H -0.66
K58: H -0.4 | T -0.477 | Y -0.511 | D -0.652 | R -0.184 | P -0.708 | E -0.738 | G -0.652 | Q -0.019 | A -0.473 | M -0.151 | L -0.848 | N -0.619 | I -0.984 | F -0.933 | W -0.342 | S -0.58
L57: H -0.226 | G -0.507 | I 0.013 | F -0.126 | K -0.497 | E -0.345 | A -0.449 | T -0.262 | P -0.89 | Y -0.156 | D -0.67 | M 0.285 | R -0.584 | S -0.534 | W -0.642 | C -0.228 | N -0.72 | V 0.063
L61: Q -0.78 | E -0.604 | S -0.815 | R -1.04 | P -0.728 | T -0.778 | C -0.379 | M -0.491 | D -0.788 | F -0.536 | G -0.757 | I -0.841 | Y -0.759 | K -0.572
K56: Q -0.074 | W -0.533 | V -0.135 | G -0.341 | N -0.131 | H -0.34 | D -0.366 | R 0.005 | A -0.226 | L -0.466 | P -0.626 | C -0.505 | T -0.307 | F -0.554 | E -0.132 | S -0.23 | M -0.268
L49: I -0.262 | P -0.687 | D -0.847 | W -1.15 | S -0.568 | A -0.964 | H -0.721 | F -0.149 | N -0.818 | G -0.632 | C -0.208 | Q -0.749 | M 0.106 | V -0.323 | Y -0.477 | R -0.862 | E -0.616
W64: Q -0.643 | T -0.684 | G -0.568 | N -0.475 | C -0.164 | S -0.722 | F -0.398 | L -0.795 | R -0.79 | K -0.461 | A -0.496 | V -0.966
C55: Y 0.012 | K -0.153 | W -0.14 | S 0.024 | M 0.145 | G -0.395 | N -0.201 | A -0.207 | V 0.15 | H -0.099 | I 0.046 | E -0.07 | D 0.188 | L 0.121 | T -0.098 | R -0.294
I60: H -0.437 | W -0.611 | P -0.2 | D -0.343 | E -0.567 | C -0.365 | S -0.568 | N -0.357 | R -0.346 | T -0.51 | F -0.725 | K -0.262 | M -0.239 | G -0.495 | Q -0.559 | L -0.135 | Y -0.347 | A -0.281 | V -0.024
K52: N -0.024 | D 0.075 | H 0.018 | I -0.463 | Y 0.057 | L -0.369 | E 0.108 | C -0.753 | S -0.002 | Q 0.022 | R -0.04 | P -0.077 | T 0.036 | V 0.073 | G -0.149 | W -0.408 | A 0.002
A54: R -0.974 | C -0.382 | G -0.295 | Y -0.333 | S 0.06 | W -0.302 | L -0.033 | Q -0.473 | V -0.756 | F -0.131 | M 0.358
N46: P -0.89 | A -0.15 | R -0.313 | G -0.311 | C -0.787 | K -0.266 | S -0.085 | T -0.579 | F -0.798 | M -0.492 | L -0.493 | V -0.661 | H -0.545 | Y -0.732 | W -0.851 | D -0.112
S50: K -0.182 | N 0.022 | C -0.459 | G 0.035 | F -0.724 | V -0.877 | L -0.57 | Y -0.822 | I -0.378 | H -0.168 | W -0.126 | A -0.307 | M -0.766 | D 0.162 | T -0.206 | Q -0.533 | R -0.348
L65: M -0.374 | H -0.887 | T -0.935 | N -0.955 | E -0.779 | D -0.85 | K -0.75 | I 0.105 | S -0.636 | R -0.748 | P -0.752 | G -0.791 | F -0.884 | A -0.772
F51: D -0.001 | C -0.534 | L -0.19 | Q -0.061 | Y 0.034 | I -0.1 | K -0.11 | G -0.39 | H 0.077 | S -0.189 | M -0.156 | N -0.342 | T -0.07 | E 0.144 | A -0.174 | W -0.042 | R -0.161 | P -0.142 | V 0.021
K63: C -0.443 | T 0.022 | H 0.039 | Q -0.157 | E 0.077 | D 0.112 | A 0.025 | F -0.799 | I -0.326 | R -0.152 | S -0.069 | M -0.155 | P -0.303 | Y -0.508 | W -0.589 | L -0.3 | V -0.155 | G -0.153
S62: K -0.3 | L -0.144 | G -0.239 | V -0.167 | R -0.377 | Y -0.585 | H -0.127 | W -0.009 | E 0.016 | F -0.059 | P -0.909 | A -0.015 | C -0.3 | Q 0.047 | N -0.438 | T 0.014 | I 0.001
A59: R -0.059 | P 0.381 | Y -0.298 | I 0.049 | N 0.078 | C -0.084 | E 0.214 | M -0.076 | G 0.059 | L -0.122 | K 0.025 | T 0.042 | W -0.61 | V 0.116 | S 0.007 | D 0.094 | Q -0.045
E45: Y -0.993 | V -0.809 | R -0.987 | W -0.762 | S -0.92 | T -0.821
